The values below are quoted from earlier work in US20200179530A1, “TARGETED DELIVERY OF THERAPEUTIC AGENTS AND IMAGING REAGENTS TO PANCREATIC CANCER CELLS” (UNIVERSITY OF MIAMI, priority 2016, published 2020).

On to “native avidin: native avidin, comparator for AvidinOX half-life”, for which the half-life entry (tissue) is recorded as “about two”.
In the case of “AvidinOX: avidin variant containing aldehyde groups, generated by ligand-assisted sugar oxidation of avidin by sodium periodate”, the half-life in tissue result is listed as “weeks”.
